Source: article PMC10541012

Experiments:
Cdh1 [1] = biological target: Cdh1 (UniProt P53197); assay: FLAG-bead in vitro Co-IP, immunoblot; settings: reference: wild type FLAG-Set1; sites S228
Cdh1 [2] = biological target: Cdh1 (UniProt P53197); assay: FLAG-bead in vitro Co-IP after Cla4; settings: reference: wild type FLAG-Set1, Cla4-treated; sites S228

Substance	binding against the reference (Cdh1 [1])	binding against the reference (Cdh1 [2])
Set1 (from UniProt P38827) FLAG-Set1-S228A	stronger	
Set1 (from UniProt P38827) FLAG-Set1-S228A, Cla4-treated		stronger
